Substitutions are numbered along the chain they refer to. Names and notes keep the numbering of the source.
Target: Factor X, P00742
Sequence (P00742 whole entry, looked up): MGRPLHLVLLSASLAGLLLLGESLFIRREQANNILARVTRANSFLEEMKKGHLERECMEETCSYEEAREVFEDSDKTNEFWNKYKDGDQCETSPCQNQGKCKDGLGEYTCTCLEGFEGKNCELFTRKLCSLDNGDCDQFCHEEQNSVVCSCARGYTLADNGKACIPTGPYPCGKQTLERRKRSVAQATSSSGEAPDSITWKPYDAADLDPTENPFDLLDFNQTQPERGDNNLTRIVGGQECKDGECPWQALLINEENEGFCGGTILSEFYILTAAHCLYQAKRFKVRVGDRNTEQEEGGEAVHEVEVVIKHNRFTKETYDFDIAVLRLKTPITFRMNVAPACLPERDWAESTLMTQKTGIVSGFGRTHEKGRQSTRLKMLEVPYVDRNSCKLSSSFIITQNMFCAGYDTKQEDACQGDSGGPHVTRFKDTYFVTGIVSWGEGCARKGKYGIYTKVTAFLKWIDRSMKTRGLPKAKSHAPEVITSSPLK

B1: FIXa-Y155F/R318Y/R338E/T343R/E410N (protein)
chain 1: YNSGKLEEFVQGNLERECMEEKCSFEEAREVFENTERTTEFWKQYVDGDQCESNPCLNGGSCKDDINSYECWCPFGFEGKNCELDVTCNIKNGRCEQFCKNSADNKVVCSCTEGYRLAENQKSCEPAVPFPCGRVSVSQTSKLTR
chain 2: VVGGEDAKPGQFPWQVVLNGKVDAFCGGSIVNEKWIVTAAHCVETGVKITVVAGEHNIEETEHTEQKRNVIRIIPHHNYNAAINKYNHDIALLELDEPLVLNSYVTPICIADKEYTNIFLKFGSGYVSGWGRVFHKGYSALVLQYLRVPLVDRATCLESTKFRIYNNMFCAGFHEGGRDSCQGDSGGPHVTEVEGTSFLTGIISWGEECAMKGKYGIYTKVSRYVNWIKNKTKLT
  % of WT kcat/KM: 794%
  kcat: 9.2 s⁻¹
  kcat/KM: 3.7e+08 M⁻¹ s⁻¹

B2: FIXa D104N/K106S/Y155F/K247N/N249S/N260S (protein)
chain 1: B1 chain 1 with D104N, K106S
chain 2: B1 chain 2 with K67N, N69S, N80S, Y138R, E158R, R163T, N230E
  % of WT kcat/KM: 18%
  KM (FX activation by FIXa in Xase complex with FVIIIa, PC/PS vesicles, Ca2+): 0.0685 µM
  kcat/KM: 8.2e+06 M⁻¹ s⁻¹

B3: FIXa R318Y/R338E/T412A (protein)
chain 1: B1 chain 1
chain 2: B1 chain 2 with R163T, N230E, T232A
  % of WT kcat/KM: 642%
  KM (FX activation by FIXa in Xase complex with FVIIIa, PC/PS vesicles, Ca2+): 0.0235 µM
  kcat/KM: 3e+08 M⁻¹ s⁻¹

B4: FIXa R318Y/R338E/N346Y/R403E/E410N (protein)
chain 1: B1 chain 1
chain 2: B1 chain 2 with R163T, N166Y, R223E
  % of WT kcat/KM: 270%
  KM (FX activation by FIXa in Xase complex with FVIIIa, PC/PS vesicles, Ca2+): 0.0281 µM
  kcat/KM: 1.2e+08 M⁻¹ s⁻¹

B5: FIXa R318Y/R338E/T343R/N346D/R403E/E410N (protein)
chain 1: B1 chain 1
chain 2: B1 chain 2 with N166D, R223E
  % of WT kcat/KM: 177%
  KM (FX activation by FIXa in Xase complex with FVIIIa, PC/PS vesicles, Ca2+): 0.067 µM
  kcat/KM: 8.2e+07 M⁻¹ s⁻¹

B6: FIXa K247N/N249S/R338E/R403E/E410N (protein)
chain 1: B1 chain 1
chain 2: B1 chain 2 with K67N, N69S, Y138R, R163T, R223E
  KM (FX activation by FIXa in Xase complex with FVIIIa, PC/PS vesicles, Ca2+): 0.025 µM

B7: FIXa Y155F/R318Y/R338E/N346D/R403E/E410N (protein)
chain 1: B1 chain 1
chain 2: B1 chain 2 with R163T, N166D, R223E
  % of WT kcat/KM: 135%
  KM (FX activation by FIXa in Xase complex with FVIIIa, PC/PS vesicles, Ca2+): 0.1 µM
  kcat/KM: 6.2e+07 M⁻¹ s⁻¹

B8: FIXa N260S/R318Y/R338E/R403E/E410N (protein)
chain 1: B1 chain 1
chain 2: B1 chain 2 with N80S, R163T, R223E
  % of WT kcat/KM: 114%
  KM (FX activation by FIXa in Xase complex with FVIIIa, PC/PS vesicles, Ca2+): 0.0724 µM
  kcat/KM: 5.3e+07 M⁻¹ s⁻¹

B9: FIXa R318Y/R338E/Y345A/R403E/E410N (protein)
chain 1: B1 chain 1
chain 2: B1 chain 2 with R163T, Y165A, R223E
  % of WT kcat/KM: 180%
  KM (FX activation by FIXa in Xase complex with FVIIIa, PC/PS vesicles, Ca2+): 0.0188 µM
  kcat/KM: 8.3e+07 M⁻¹ s⁻¹

B10: FIXa R318Y/R338E/T343R/N346Y/R403E/E410N (protein)
chain 1: B1 chain 1
chain 2: B1 chain 2 with N166Y, R223E
  % of WT kcat/KM: 663%
  KM (FX activation by FIXa in Xase complex with FVIIIa, PC/PS vesicles, Ca2+): 0.0158 µM
  kcat/KM: 3.1e+08 M⁻¹ s⁻¹

B11: FIXa K293A/R338A/R403A (protein)
chain 1: B1 chain 1
chain 2: B1 chain 2 with K113A, Y138R, E158A, R163T, R223A, N230E
  KM of FX activation by FIXa in the Xase complex (FVIIIa, PC/PS vesicles, Ca2+); fluorogenic FXa substrate: 0.0654 µM

B12: FIXa Y155F/K247N/N249S/R338E/R403E/E410N (protein)
chain 1: B1 chain 1
chain 2: B1 chain 2 with K67N, N69S, Y138R, R163T, R223E
  KM (FX activation by FIXa in Xase complex with FVIIIa, PC/PS vesicles, Ca2+): 0.0487 µM

B13: FIXa D104N/K106S/R318Y/R338E/T343R/R403E/E410N (protein)
chain 1: B1 chain 1 with D104N, K106S
chain 2: B1 chain 2 with R223E
  % of WT kcat/KM: 487%
  KM (FX activation by FIXa in Xase complex with FVIIIa, PC/PS vesicles, Ca2+): 0.0266 µM
  kcat/KM: 2.2e+08 M⁻¹ s⁻¹

B14: FIXa K247N/N249S/R318Y/R338E/R403E (protein)
chain 1: B1 chain 1
chain 2: B1 chain 2 with K67N, N69S, R163T, R223E, N230E
  KM (FX activation by FIXa in Xase complex with FVIIIa, PC/PS vesicles, Ca2+): 0.0536 µM

B15: FIXa Y155F/N260S/R318Y/R338E/R403E/E410N (protein)
chain 1: B1 chain 1
chain 2: B1 chain 2 with N80S, R163T, R223E
  % of WT kcat/KM: 152%
  KM (FX activation by FIXa in Xase complex with FVIIIa, PC/PS vesicles, Ca2+): 0.0839 µM
  kcat/KM: 7e+07 M⁻¹ s⁻¹

B16: FIXa R318Y/R338E/T343R/R403E (protein)
chain 1: B1 chain 1
chain 2: B1 chain 2 with R223E, N230E
  KM (FX activation by FIXa in Xase complex with FVIIIa, PC/PS vesicles, Ca2+): 0.0443 µM

B17: FIXa D104N/K106S/K247N/N249S/N260S (protein)
chain 1: B1 chain 1 with D104N, K106S
chain 2: B1 chain 2 with K67N, N69S, N80S, Y138R, E158R, R163T, N230E
  % of WT kcat/KM: 21%
  KM (FX activation by FIXa in Xase complex with FVIIIa, PC/PS vesicles, Ca2+): 0.0612 µM
  kcat/KM: 9.8e+06 M⁻¹ s⁻¹

B18: FIXa R318Y/R338E/T343R/R403E/E410N (protein)
chain 1: B1 chain 1
chain 2: B1 chain 2 with R223E
  % of WT kcat/KM: 907%
  KM (FX activation by FIXa in Xase complex with FVIIIa, PC/PS vesicles, Ca2+): 0.0247 µM
  kcat/KM: 4.2e+08 M⁻¹ s⁻¹

B19: FIXa Y155F/R318Y/R338E/T343R/R403E (protein)
chain 1: B1 chain 1
chain 2: B1 chain 2 with R223E, N230E
  KM (FX activation by FIXa in Xase complex with FVIIIa, PC/PS vesicles, Ca2+): 0.034 µM

B20: FIXa R318Y/R338E/R403E/E410N/T412A (protein)
chain 1: B1 chain 1
chain 2: B1 chain 2 with R163T, R223E, T232A
  % of WT kcat/KM: 538%
  KM (FX activation by FIXa in Xase complex with FVIIIa, PC/PS vesicles, Ca2+): 0.0344 µM
  kcat/KM: 2.5e+08 M⁻¹ s⁻¹

B21: FIXa-R338E/T343R/R403E/E410N (protein)
chain 1: B1 chain 1
chain 2: B1 chain 2 with Y138R, R223E
  % of WT kcat/KM: 650%
  kcat: 9.8 s⁻¹
  kcat/KM: 3e+08 M⁻¹ s⁻¹

B22: FIXa Y155F/K247N/N249S/R318Y/R338E/R403E (protein)
chain 1: B1 chain 1
chain 2: B1 chain 2 with K67N, N69S, R163T, R223E, N230E
  KM (FX activation by FIXa in Xase complex with FVIIIa, PC/PS vesicles, Ca2+): 0.0673 µM

B23: FIXa D104N/K106S/N260S/R318Y/R338E/R403E/E410N (protein)
chain 1: B1 chain 1 with D104N, K106S
chain 2: B1 chain 2 with N80S, R163T, R223E
  % of WT kcat/KM: 190%
  KM (FX activation by FIXa in Xase complex with FVIIIa, PC/PS vesicles, Ca2+): 0.0611 µM
  kcat/KM: 8.8e+07 M⁻¹ s⁻¹

B24: FIXa-Y155F/R318Y/T343R/R403E/E410N (protein)
chain 1: B1 chain 1
chain 2: B1 chain 2 with E158R, R223E
  % of WT kcat/KM: 571%
  kcat: 8.8 s⁻¹
  kcat/KM: 2.6e+08 M⁻¹ s⁻¹

B25: FIXa R318Y/R338E/R403E/T412A (protein)
chain 1: B1 chain 1
chain 2: B1 chain 2 with R163T, R223E, N230E, T232A
  % of WT kcat/KM: 173%
  KM (FX activation by FIXa in Xase complex with FVIIIa, PC/PS vesicles, Ca2+): 0.0675 µM
  kcat/KM: 8e+07 M⁻¹ s⁻¹

B26: FIXa K293E/R338E/R403E (protein)
chain 1: B1 chain 1
chain 2: B1 chain 2 with K113E, Y138R, R163T, R223E, N230E
  KM of FX activation by FIXa in the Xase complex (FVIIIa, PC/PS vesicles, Ca2+); fluorogenic FXa substrate: 0.05 µM

B27: FIXa-R318Y/T343R/R403E/E410N (protein)
chain 1: B1 chain 1
chain 2: B1 chain 2 with E158R, R223E
  % of WT kcat/KM: 125%
  kcat: 5.3 s⁻¹
  kcat/KM: 5.8e+07 M⁻¹ s⁻¹

B28: FIXa R318Y/R338E/R403E/E410N/T412V (protein)
chain 1: B1 chain 1
chain 2: B1 chain 2 with R163T, R223E, T232V
  % of WT kcat/KM: 342%
  KM (FX activation by FIXa in Xase complex with FVIIIa, PC/PS vesicles, Ca2+): 0.0483 µM
  kcat/KM: 1.6e+08 M⁻¹ s⁻¹

B29: FIXa K247N/N249S/R318Y/R403E/E410N (protein)
chain 1: B1 chain 1
chain 2: B1 chain 2 with K67N, N69S, E158R, R163T, R223E
  KM (FX activation by FIXa in Xase complex with FVIIIa, PC/PS vesicles, Ca2+): 0.111 µM

B30: FIXa Y155F/R318Y/R338E/T343R/R403E/E410N (protein)
chain 1: B1 chain 1
chain 2: B1 chain 2 with R223E
  % of WT kcat/KM: 640%
  KM (FX activation by FIXa in Xase complex with FVIIIa, PC/PS vesicles, Ca2+): 0.0272 µM
  kcat/KM: 3e+08 M⁻¹ s⁻¹

B31: FIXa Y155F/K247N/N249S/R318Y/R403E/E410N (protein)
chain 1: B1 chain 1
chain 2: B1 chain 2 with K67N, N69S, E158R, R163T, R223E
  KM (FX activation by FIXa in Xase complex with FVIIIa, PC/PS vesicles, Ca2+): 0.125 µM

B32: FIXa K247N/N249S/N260S/R318Y/R338E/R403E/E410N (protein)
chain 1: B1 chain 1
chain 2: B1 chain 2 with K67N, N69S, N80S, R163T, R223E
  % of WT kcat/KM: 145%
  KM (FX activation by FIXa in Xase complex with FVIIIa, PC/PS vesicles, Ca2+): 0.0474 µM
  kcat/KM: 6.7e+07 M⁻¹ s⁻¹

B33: FIXa Y155F/K247N/N249S/N260S/R318Y/R338E/R403E/E410N (protein)
chain 1: B1 chain 1
chain 2: B1 chain 2 with K67N, N69S, N80S, R163T, R223E
  % of WT kcat/KM: 124%
  KM (FX activation by FIXa in Xase complex with FVIIIa, PC/PS vesicles, Ca2+): 0.0954 µM
  kcat/KM: 5.7e+07 M⁻¹ s⁻¹

B34: FIXa Y155F/K228N/K247N/N249S/R318Y/R338E/R403E/E410N (protein)
chain 1: B1 chain 1
chain 2: B1 chain 2 with K48N, K67N, N69S, R163T, R223E
  % of WT kcat/KM: 263%
  KM (FX activation by FIXa in Xase complex with FVIIIa, PC/PS vesicles, Ca2+): 0.0454 µM
  kcat/KM: 1.2e+08 M⁻¹ s⁻¹

B35: FIXa Y155F/K247N/N249S/N260S (protein)
chain 1: B1 chain 1
chain 2: B1 chain 2 with K67N, N69S, N80S, Y138R, E158R, R163T, N230E
  % of WT kcat/KM: 42%
  KM (FX activation by FIXa in Xase complex with FVIIIa, PC/PS vesicles, Ca2+): 0.0965 µM
  kcat/KM: 1.9e+07 M⁻¹ s⁻¹

B36: FIXa R318Y/R338E/E410N/T412V (protein)
chain 1: B1 chain 1
chain 2: B1 chain 2 with R163T, T232V
  % of WT kcat/KM: 571%
  KM (FX activation by FIXa in Xase complex with FVIIIa, PC/PS vesicles, Ca2+): 0.0236 µM
  kcat/KM: 2.6e+08 M⁻¹ s⁻¹

— US20210238260
